# Assay results as given in the nanobody polyreactivity screen of Harvey et al. (2022).
# Test: yeast display, Sf9 membrane polyspecificity reagent, FACS + sequencing; frameworks hold sequencing errors
# Summary of the method: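 A synthetic nanobody library was expressed on Saccharomyces cerevisiae BJ5465 by galactose induction for 36–48 hours. The library was stained for 1 hour at 4 °C with 10% biotinylated, detergent-solubilized Sf9 membrane reagent and enriched with streptavidin microbeads before FACS. Low and high (top ~1%) gates were set on anti-HA fluorescence for expression and streptavidin fluorescence for reagent binding, and each polyreactivity label reflects the gate of origin.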
row,Sequence,polyreactivity (PSR sort gate)
1,QVQLVESGGGLVQAGGSLRLSCAASGSTFTIYAMGWYRQAPGKERELVAAISSGGGDTDYADSVKGRFTISRDNAKNTVYLQMNSLKPEDTAGYYCNAEGTSPRTGYDYCGQGTQVTVSS,low polyreactivity
2,QVQLVESGGGLVQAGGSLRLSCAASGSTFTIYAMGWYRQAPGKERELVAAISSGGGDTDYADSVKGRFTISRDNAKNTVYLQMNSLKPEDTAVYYCNAEGTSPRTGYDYWGQGTQVTVSS,low polyreactivity
3,QVQLVESGGGLVQAGGSLRLSCAASGSTFTKYAMGWYRQAPGKERELVAAITASGGNTYYADSVKGRFTISRDNAKKTVYLQMNSLKPEDTAVYYCAARQYRYKYDYWGQGTQVTVSS,high polyreactivity
4,QVQLVESGGGLVQAGGSLRLSCAASGSTFTLNAMGWSRQAPGKERELVADITSGGGGTYYADSVKGRFTISRDNAKNTVYLQMNSLKPEDTAVYYCAKTYRPSYNPYISFGFDYWGQGTQVTVSS,low polyreactivity
5,QVQLVESGGGLVQAGGSLRLSCAASGSTFTLNAMGWYRQAPGKERELVAAITSGGRTKYADSVKGRFTISRDNAKNTVYLQMNSLKPEDTAVYYCAATFAGGYGYWGQGTQVTVSS,high polyreactivity
6,QVQLVESGGGLVQAGGSLRLSCAASGSTFTLNAMGWYRQAPGKERELVADISWSSGRTYYADSVKGRFTISRDNAKNTVYLQMNSLKPEDTAVYYCNKDDNSYGLNYWGQGTQVTVSS,low polyreactivity
7,QVQLVESGGGLVQAGGSLRLSCAASGSTFTLYAMGWSRQAPGKERELVAAISRSGGRTYYADSVKGRFTISRDNAKNTVYLQMNSLKPEDTAVYYCNAPYKQDYDYWGQGTQVTVSS,high polyreactivity
8,QVQLVESGGGLVQAGGSLRLSCAASGSTFTLYAMGWYRQAPGNERELVASITASDGSTSYADSVKGRFTISRDNAKNTVYLQMNSLKPEDTAVYYCAARYRVRGISYYYWGQGTQVTVSS,low polyreactivity
9,QVQLVESGGGLVQAGGSLRLSCAASGSTFTNYAMGRYRQSAGKERELLAAINSGGSTHYADSVKGRFTISRDNANNTVYLQMYSLKPEDTAVYYCDADPSALVYYWRWLGYDYWGQGTQVTVSS,high polyreactivity
10,QVQLVESGGGLVQAGGSLRLSCAASGSTFTNYAMGWYRQAPGKERELLARITYNVGRTYYADSVKGRFTISRDNAKNTVYLQMNSLKPEDTAVYYCAAGVGWRYRVRWYYSLGDYWGQGTQVTVSS,high polyreactivity
11,QVQLVESGGGLVQAGGSLRLSCAASGSTFTNYAMGWYRQAPGKERELVAAITSVGSTYYADSVKGRFTISRDNAKNTVYLQMNSLKPEDTAVYYCNVVYRDQYNYWGQGTQVTVSS,low polyreactivity
12,QVQLVESGGGLVQAGGSLRLSCAASGSTFTPNAMGWYRQAPGKERELVASISTTGGNTYYADSVKGRFTISRDNAKNTVYLQMNSLKPEDTADYYCNAVRSVYLYGYIYGVDYWGQGTQVTVSS,low polyreactivity
13,QVQLVESGGGLVQAGGSLRLSCAASGSTFTPNARGSYRQAPGKERELVAAINYLGGSTYYADSVKGRFTISRDNAKNTVYVQMNSLKPEDTAVYYCARRQYFRGQRYDYWGQGTQVTVSS,high polyreactivity
14,QVQLVESGGGLVQAGGSLRLSCAASGSTFTPYAMGWYRQAPGKERELVAAINSRGGSTYYADSVKGRFTISRDNAKNTVYLQMHSLKPEDSAVYYCAARTRRRTSAYEYWGQGTQVTVSS,high polyreactivity
15,QVQLVESGGGLVQAGGSLRLSCAASGSTFTPYAMGWYRQAPGKERELVASITIGGSTYADSVKGRFTISRDNAKNTVYLQMNSLKPEDTAVYSCNADWNWYPFLYSRMDYWGQGTQVTVSS,low polyreactivity
16,QVQLVESGGGLVQAGGSLRLSCAASGSTFTPYGMGWYRQAPGKERELVAAITVSGGRTYYADSVKGRFTISRDNAKNTVYLQMNSLKPEDTAVYYCAAVYLRGDGEYDSWGQGTQVTVSS,low polyreactivity
17,QVQLVESGGGLVQAGGSLRLSCAASGSTFTQKAMGWYRQAPGKERELVAAISSSGTRTYYADSVKGRFTISRDNAKNTVYLQMNSLKPEDTAVYYCNARYRIGSWYEFGSWGQGTQVTVSS,high polyreactivity
